Laboratory results from publication PMC5404317.
Changes are numbered by the printed parent chain. Numbers in names are those of the source.

Molecular target: HSP90, P07900
Assay: co-immunoprecipitation (V5 agarose) with western blot quantification
Details: chain shown with the change, HeLa cells, read off a plot
[1] = 10 μM CCCP for 2 h, parent: est. 0.82
[2] = untreated (no CCCP), parent: est. 1.0

B1: PINK1-V5 WT (V5-6xHis-tagged PINK1 wild type), Q9BXM7 L347P (protein)
chain: AARLQRQFVVRAWGCAGPCGRAVFLAFGLGLGLIEEKQAESRRAVSACQEIQAIFTQKSKPGPDPLDTRRLQGFRLEEYLIGQSIGKGCSAAVYEATMPTLPQNLEVTKSTGLLPGRGPGTSAPGEGQERAPGAPAFPLAIKMMWNISAGSSSEAILNTMSQELVPASRVALAGEYGAVTYRKSKRGPKQLAPHPNIIRVLRAFTSSVPLLPGALVDYPDVLPSRLHPEGLGHGRTLFLVMKNYPCTLRQYLCVNTPSPRLAAMMLLQLPEGVDHLVQQGIAHRDLKSDNILVELDPDGCPWLVIADFGCCLADESIGLQLPFSSWYVDRGGNGCLMAPEVSTARPGPRAVIDYSKADAWAVGAIAYEIFGLVNPFYGQGKAHLESRSYQEAQLPALPESVPPDVRQLVRALLQREASKRPSARVAANVLHLSLWGEHILALKNLKLDKMVGWLLQQSAATLLANRLTEKCCVETKMKMLFLANLECETLCQAALLLCSWRAAL
How did the response (HSP90/V5 ratio) [1] turn out when B1 was run?
The response (HSP90/V5 ratio) was 0.42.

And the response (HSP90/V5 ratio) [2]?
The response (HSP90/V5 ratio) was 0.54.

B2: PINK1-V5 WT (V5-6xHis-tagged PINK1 wild type), Q9BXM7 I368N (protein)
chain: B1 chain with P270L, I291N
What does the source list for B2?
response (HSP90/V5 ratio) [1]: 0.62; response (HSP90/V5 ratio) [2]: 0.6
